Values of other authors as cited in publication PMC4464844.

What was measured:
[1] = target: Tyr9 (UniProt position 9, KPKLHYFNARG)
[2] = target: Tyr9 (UniProt position 9, KPKLHYFNGRG)
[3] = target: Tyr9 (UniProt position 9, RPKLHYPNGRG)

In the case of “Glutathione transferase A1-1 (hGSTA1-1) (Homo sapiens)”, the pKa [1] is listed as 8.1.

For “Glutathione transferase A1-1 GIMFhelix mutant (Homo sapiens; A12G;L107I;L108M;V111F;residues 208-222 replaced by the GSTA4-4 sequence)”, the pKa [2] is listed as 7.3.

For “Glutathione transferase A4-4 (hGSTA4-4) (Homo sapiens)”, the pKa [3] is given as 6.7.
